Experimental data taken from IntAct's records for PubMed 16294310.

B1: Acyl carrier protein (Escherichia coli (strain K12)), P0A6A8 (parent)
chain: MSTIEERVKKIIGEQLGVKQEEVTNNASFVEDLGADSLDTVELVMALEEEFDTEIPDEEAEKITTVQAAIDYINGHQA
partner: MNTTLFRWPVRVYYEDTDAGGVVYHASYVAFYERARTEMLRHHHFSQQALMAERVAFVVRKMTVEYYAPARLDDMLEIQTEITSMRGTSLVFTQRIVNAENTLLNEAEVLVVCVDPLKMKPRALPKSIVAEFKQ

Variants of: B1
Conditions: with ybgc_ecoli ybgC

| Variant | effect of a mutation on the interaction |
| --- | --- |
| MSTIEERVKKIIGEQLGVKQEEVTNNASFVEDLGADCLDTVELVMALEEEFDTEIPDEEAEKITTVQAAIDYINGHQA [S37C] | disrupting interaction |
